Target: human UbcH5c, full-length (aa 1-147) (human) (UniProt P61077)
Assay: ITC

Kd: 67.1 µM | dH: 12.1 kJ/mol | stoichiometry N: 0.99
Substance: human E4B U-box domain (aa 1208-1302) (from UniProt O95155 1208-1302) (domain or fragment)

Source: paper PMC3005147
